For experiment [1], the target named is laminin β1 LN-LEa1–4 fragment (mouse). Briefly: SPR.
For experiment [2] the target is unchanged. Briefly: SEC-MALS.

B1: laminin γ1 LN-LEa1–4 fragment (domain or fragment)
chain: APLAAMDECADEGGRPQRCMPEFVNAAFNVTVVATNTCGTPPEEYCVQTGVTGVTKSCHLCDAGQQHLQHGAAFLTDYNNQADTTWWQSQTMLAGVQYPNSINLTLHLGKAFDITYVRLKFHTSRPESFAIYKRTREDGPWIPYQYYSGSCENTYSKANRGFIRTGGDEQQALCTDEFSDISPLTGGNVAFSTLEGRPSAYNFDNSPVLQEWVTATDIRVTLNRLNTFGDEVFNEPKVLKSYYYAISDFAVGGRCKCNGHASECVKNEFDKLMCNCKHNTYGVDCEKCLPFFNDRPWRRATAESASECLPCDCNGRSQECYFDPELYRSTGHGGHCTNCRDNTDGAKCERCRENFFRLGNTEACSPCHCSPVGSLSTQCDSYGRCSCKPGVMGDKCDRCQPGFHSLTEAGCRPCSCDPSGSTDECNVETGRCVCKDNVEGFNCERCKPGFFNLESSNPKGCTPAAAHHHHHH
Consider B1, for which, in experiment [1], the Kd stood at 22.3 ± 1.7 µM. For the same molecule, the “stoichiometry N” value in experiment [2] turned out to be 1.

The values above are taken from publication PMC3531742 (The Journal of Biological Chemistry, 2012).
